Data: PMC4278885

Tests used:
[1] = target: GFP-binding nanobody Enhancer (camelid); experiment: Molecular Force Assay (Protein-MFA); Enhancer covalently on the glass slide via its C-terminus (PEG linker); GFP attached at its N-terminus to the DNA reference; reference 20 bp DNA stabilized with polyamide P1; one contact process with a single stamp; retraction 1 um/s; read-out Normalized Fluorescence (NF), 0.5 = protein bond as strong as the reference
[2] = target: GFP-binding nanobody Enhancer (camelid); experiment: Molecular Force Assay (Protein-MFA); multiplexed measurement of Fig. 2B: nanobody on the glass slide, sfGFP on the DNA reference; references compared: unmodified 40 bp DNA, 40 bp DNA with propynyl bases, 20 bp DNA with polyamide P1, P2 or P3 (1 uM); pH 7.4; read-out NF

Sequence of GFP-binding nanobody Enhancer (camelid) (heavy, as listed by the source): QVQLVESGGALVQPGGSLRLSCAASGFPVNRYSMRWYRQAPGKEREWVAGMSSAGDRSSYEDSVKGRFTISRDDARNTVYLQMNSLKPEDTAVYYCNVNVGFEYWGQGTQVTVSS

Normalized Fluorescence (NF), 20 bp DNA reference with polyamide P1 [1]: 0.353
Normalized Fluorescence (NF), 40 bp DNA reference with propynyl bases [2]: 0.8
Substance: superfolder GFP (from UniProt P42212 1-238) (natural protein)
